The values that follow are results of earlier work, collected in article PMC7855784.

What is called Kd is a measure of binding affinity in units of concentration.

The data set has as its target HER2 ECD (Homo sapiens) (UniProt P04626).

Consider PEPD (from UniProt P12955), for which the Kd was 7.3 nM.
